The text below walks through data of PMC10773802, “Electrochemical aptasensor fabricated by anchoring recognition aptamers and immobilizing redox probes on bipolar silica nanochannel array for reagentless detection of carbohydrate antigen 15-3”.

In this data set the target is carbohydrate antigen 15-3 (CA15-3) (UniProt P15941 24-1097). Nature of the data set: electrochemical aptasensor (DPV, CV, EIS); aptamer immobilized on bp-SNA/ITO with Co(bpy)3 2+ probe, BSA-blocked; linear 0.001-500 U/mL, LOD 0.13 mU/mL (not a Kd); 0.01 M PBS (sodium phosphate), pH 7.4; CA15-3 incubation 80 min at 4 °C; BSA-blocked electrode (0.1 wt%). To be noted: protein: commercial.
carbohydrate antigen 15-3 (CA15-3), sequence (P15941 24-1097): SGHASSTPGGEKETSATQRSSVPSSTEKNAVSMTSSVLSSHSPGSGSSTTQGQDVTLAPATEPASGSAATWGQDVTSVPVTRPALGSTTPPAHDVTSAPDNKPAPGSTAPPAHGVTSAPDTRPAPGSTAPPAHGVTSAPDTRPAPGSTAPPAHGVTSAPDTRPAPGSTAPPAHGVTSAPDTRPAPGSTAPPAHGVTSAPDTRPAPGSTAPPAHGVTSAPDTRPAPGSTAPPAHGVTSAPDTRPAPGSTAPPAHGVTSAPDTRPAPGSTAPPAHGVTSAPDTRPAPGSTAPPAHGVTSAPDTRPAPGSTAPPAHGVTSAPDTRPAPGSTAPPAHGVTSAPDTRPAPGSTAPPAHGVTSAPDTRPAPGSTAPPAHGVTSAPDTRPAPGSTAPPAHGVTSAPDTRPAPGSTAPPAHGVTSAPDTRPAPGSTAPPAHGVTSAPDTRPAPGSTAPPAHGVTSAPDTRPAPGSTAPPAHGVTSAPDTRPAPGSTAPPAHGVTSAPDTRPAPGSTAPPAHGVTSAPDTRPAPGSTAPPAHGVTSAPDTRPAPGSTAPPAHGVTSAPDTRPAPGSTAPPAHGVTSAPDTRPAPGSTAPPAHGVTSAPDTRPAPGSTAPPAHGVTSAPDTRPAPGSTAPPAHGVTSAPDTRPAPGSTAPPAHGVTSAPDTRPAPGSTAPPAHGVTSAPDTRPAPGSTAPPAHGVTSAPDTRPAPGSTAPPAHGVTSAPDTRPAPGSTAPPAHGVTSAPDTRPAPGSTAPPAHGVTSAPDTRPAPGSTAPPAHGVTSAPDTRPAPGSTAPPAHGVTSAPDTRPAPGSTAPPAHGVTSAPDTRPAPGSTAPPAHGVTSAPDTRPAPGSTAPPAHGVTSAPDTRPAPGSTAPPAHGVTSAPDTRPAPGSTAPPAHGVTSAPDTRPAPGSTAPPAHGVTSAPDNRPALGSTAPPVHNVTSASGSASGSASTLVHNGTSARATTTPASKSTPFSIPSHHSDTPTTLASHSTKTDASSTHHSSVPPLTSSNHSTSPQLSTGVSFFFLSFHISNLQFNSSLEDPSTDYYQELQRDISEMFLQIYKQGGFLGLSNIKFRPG

B1: CA15-3 aptamer (amino-modified) (ssDNA)
DNA: CTTCCTCCCTGAAGTGAATATGACAGATCACAACTTCCCTCCTTC
modifications: 5'-NH2
For the molecule B1, the binding result is recorded as “binds”.
